Reference: article PMC7156504 (2020)

B1: evolved scFvWFL variant 37 reformatted as IgG1 (antibody, V domains shown)
VH: QVQLVPSGAEVKKPGSSVKVSCKASGGTFWFGAFTWVRQAPGQGLEWMGGIIPTFGLTNLAQNFQGRVTITADESTSTVYMELSSLRSEDTAVYYCARSSRIYDLNPSLTAYYDMDVWGQGTMVTVSS
VL: QSVLTQPPSVSAAPGQKVTISCSGPSSDIGNNYVSWYQQLPGTAPKLLIYDNNKRPSGIPDRFSGSKSGTSATLGITGLQTGDEADYYCGTWDSSLSAWVFGGGTKLTVL
B2: MEDI578 (the parent antibody prior to affinity maturation into MEDI1912) (antibody, V domains shown)
VH: QVQLVQSGAEVKKPGSSVKVSCKASGGTFSTYGISWVRQAPGQGLEWMGGIIPIFDTGNSAQSFQGRVTITADESTSTAYMELSSLRSEDTAVYYCARSSRIYDLNPSLTAYYDMDVWGQGTMVTVSS
VL: QSVLTQPPSVSAAPGQKVTISCSGSSSNIGNNYVSWYQQLPGTAPKLLIYDNNKRPSGIPDRFSGSKSGTSATLGITGLQTGDEADYYCGTWDSSLSAWVFGGGTKLTVL
B3: evolved scFvWFL variant 72 reformatted as IgG1 (antibody, V domains shown)
VH: QVQLVQSGAEVKKPGSSVKVSCKASGGTSWFGAFTWVRQAPGQGLEWMGGTIPIFGLTNLAQNFQGRVTITADESTSTVYMELSSLRSDDTAVYYCARSSRIYDLNPSLTAYYDMGVWGQGTMVTVSS
VL: QSVLTQPPSVSAAPGQKVTISCSGSSSDIGDNYVSWYQQLPGTAPKLLIYDNNKRPSGIPDRFSGSKSGTSATLGITGLQTGDEADYYCGTWDSSLSAWVFGGGTKLTVL
B4: IgGSTT, variant of MEDI1912 with W35S, F36T and L64T in VH (antibody, V domains shown)
VH: QVQLVQSGAEVKKPGSSVKVSCKASGGTFSTGAFTWVRQAPGQGLEWMGGIIPIFGTTNLAQNFQGRVTITADESTSTVYMELSSLRSEDTAVYYCARSSRIYDLNPSLTAYYDMDVWGQGTMVTVSS
VL: QSVLTQPPSVSAAPGQKVTISCSGSSSDIGNNYVSWYQQLPGTAPKLLIYDNNKRPSGIPDRFSGSKSGTSATLGITGLQTGDEADYYCGTWDSSLSAWVFGGGTKLTVL
B5: IgGWFL (MEDI1912), human IgG1 antibody specific for human nerve growth factor (antibody, V domains shown)
VH: QVQLVQSGAEVKKPGSSVKVSCKASGGTFWFGAFTWVRQAPGQGLEWMGGIIPIFGLTNLAQNFQGRVTITADESTSTVYMELSSLRSEDTAVYYCARSSRIYDLNPSLTAYYDMDVWGQGTMVTVSS
VL: QSVLTQPPSVSAAPGQKVTISCSGSSSDIGNNYVSWYQQLPGTAPKLLIYDNNKRPSGIPDRFSGSKSGTSATLGITGLQTGDEADYYCGTWDSSLSAWVFGGGTKLTVL
B6: evolved scFvWFL variant 176 reformatted as IgG1 (antibody, V domains shown)
VH: QVQLVRSGAEVKKPGSSVKVSCKASGGTFWFGAFTWVRQAPGQGLEWMGGIIPIFGLTNLAQNFQGRVTITADESTSTVYMELSSLRSEDTAVYYCARSSRIYDLNPSLTAYYDMDVWGQGTMVTVSS
VL: QSVLTQPPSVSAAPGQKVTISCSGSSSDIGNNYVSWYQQLPGTAPKLLIYDNNKRPSGIPDRFSGSKSGTSATLGITGLQTGDEADYYCGTWDSSLSAWVFGGGTKLTVL
B7: evolved scFvWFL variant 128 reformatted as IgG1 (antibody, V domains shown)
VH: QVQLVQSGAEVKKPGSSVKVSCKASGGTFWFGAFTWVRQAPGQGLEWMGGIIPIFGLTNLAQNFQGRVTITADESTSTVYMELSSLRSEDTAVYYCARSSRIYDLNPSLTADYDMDVWGQGTMVTVSS
VL: QSVLTQPPSVSAAPGQEVTISCSGSSSDIGNNYVSWYQQPPGAAPKLLIYDNNKRPSGIPDRFSGSKSGTSATLGITGLQTGDEADYYCGTWDSSLSAWVFGGGTKLTVL
B8: evolved scFvWFL variant 11 reformatted as IgG1 (antibody, V domains shown)
VH: QVQLVRSGAEVKKPGSSVKVSCKASGGTFWFGAFTWVRQAPGQGLEWMGGIIPIFGLTNLAQNFQGRVTITADESTSTVYMELSSLRSEDTAVYYCARSSRIYDLNPSLAAYYDMDVWGQGTMVTVSS
VL: QSVLTQPPSVSAAPGQKVTIPCSGSSSDIGNNYVSWYQQLPGTAPKLLIYDNNKRPSGIPDRFSGSKSGTSATLGVTGLQTGDEADYYCGTWDSSLSAWVFGGGTKLTVL
B9: evolved scFvWFL variant 139 reformatted as IgG1 (antibody, V domains shown)
VH: QVQLVQSGAEVKKPGSSVKVSCKAGGGTFWSGAFTWVRQAPGQGLEWMGGIIPIFGLTNLAQNFQGRVTITADESTSTVYMELSSLRSEDTAVYYCARSSRTYDLNPSLTAYYDMDVWGQGTMVTVSS
VL: QSVLTQPPSVSAAPGQKVTISCSGSSSDIGNNYVSWYQQLPGTAPKLLIYDNNKRPSGIPDRFSGSKSGTTATLGITGLQTGDEADYYCGTWDSSLSAWVFGGGTKLTVL
B10: evolved scFvWFL variant 59 reformatted as IgG1 (antibody, V domains shown)
VH: QVQLVQSGAEVKKPGSSVKVSCKASGGTFRFGAFTWARQAPGQGLEWMGGIIPIFGLTNLAQNFQGRATITADESTSTVYMELSSLRSEDTAVYYCARSSRIYDLNPSLTAYYDMDVWGQGTMVTVSS
VL: QSVLTQPPSVSAAPGQKVTISCSGSSSDIGNNYVSWYQQLPGTAPKLLTYDNNKRPSGIPGRFSGSKSGTSATLGITGLQTGDEADYYCGTWDSSLSAWVFGGGTKLTVL
B11: evolved scFvWFL variant 16 reformatted as IgG1 (antibody, V domains shown)
VH: QVQLVQSGAEVKKPGSSVKVSCKASGGTFWSGAFTWVRQAPGQGLEWMGGIIPISGLTNLAQNFQGRVTITADESTSTAYMELSSLRSEDTAVYYCARSSRIYDLNPSLTAYYDMDVWGQGTMVTVSS
VL: QSVLTQPPSVSAAPGQKVTISCSGSSSDIGNNYVSWYQQLPGTAPKLLIYDNNKRPSGIPDRFSGSKSGTSATLGITGLQTGDEADYYCGTWDSSLSAWVIGGGTKLTVL
B12: evolved scFvWFL variant 130 reformatted as IgG1 (antibody, V domains shown)
VH: QVQLVQSGAEVKKPGSSVKVSCKASGGAFWFGAFTWVRQAPGQGLEWMGGITPIFGHTNLAQNFQGRVTITADESTSTVYMELSSLRSEDTAVYYCARSSRIYDLNPSLTAYYDMDVWGQGTMVTVSS
VL: QSVLTQPPSVSAAPGQKVTISCSGSSSDIGNNYVSWYQQLPGTAPKLLIYDNNKRPSGIPDRFSGSKSGTSATLGITGLQTGDEADYYCGTWDSSLSAWVFGGGTKLTVL
B13: evolved scFvWFL variant 126 reformatted as IgG1 (antibody, V domains shown)
VH: QVQLVQSGAEVKKPGSSVKVSCKASGGTFWFGAFTWVRQAPGQGLEWMGGFIPISGLTNLAQNFQGRVTITADESTSTVYMELSSLRSEDTAVYYCARSSRIYDLNPSLTAYYDMDVWGQGTMVTVSS
VL: QSVLTQPPSVSAAPGQKVTISCSGSSSDIGNNYVSWYQQLPGTAPKLLIYDNNKRPSGIPDRFSGSKSGTSATLGITGLQTGDEADYYCGTWDSSLSAWVFGGGTKLTVL

What follows are binders tested against biotinylated nerve growth factor (NGF) (human, UniProt P01138 122-241, biotin (biotinylated in-house, sites not stated)) (assay: FRET; epitope competition with labelled IgGWFL).
Chain of biotinylated nerve growth factor (NGF) (P01138 122-241): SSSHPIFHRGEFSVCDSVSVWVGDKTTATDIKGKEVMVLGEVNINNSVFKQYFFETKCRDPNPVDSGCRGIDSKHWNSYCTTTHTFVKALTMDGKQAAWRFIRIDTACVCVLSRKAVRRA

Q: For B1, which IC50 is on record?
A: 0.136 nM

Q: With B2 as the binder, how does the IC50 read?
A: 36.8 nM

Q: With B3 as the binder, how does the IC50 read?
A: 1.91 nM

Q: How did the IC50 turn out when B4 was run?
A: 0.573 nM

Q: With B5 as the binder, how does the IC50 read?
A: 0.363 nM

Q: Which IC50 does the source give for B6 here?
A: 0.201 nM

Q: How did the IC50 turn out when B7 was run?
A: 1.41 nM

Q: How did the IC50 turn out when B8 was run?
A: 0.251 nM

Q: B9 was tested. Which IC50 did it give?
A: 0.649 nM

Q: B10 was tested. Which IC50 did it give?
A: 0.177 nM

Q: With B11 as the binder, how does the IC50 read?
A: 0.935 nM

Q: How did the IC50 turn out when B12 was run?
A: 2.06 nM

Q: How did the IC50 turn out when B13 was run?
A: 5.69 nM
